# Where a chain is given by its changes, count along the chain named.
# B1: NCI-CoV-8A2 (VHH)
# VHH: AVQLVDSGGGSVQAGGSLRLSCAASGYTYSICTMGWYRQAPGEGLEWVSGINADGSNTHYTDSVKGRFTISRDNAKKTLYLQMNSLKPEDTAIYYCAAHGTYDKYAPCGGFAGTYTYWGQGTQVTVSS
# B2: NCI-CoV-7E5 (VHH)
# VHH: AVQLVESGGGSVQAGGSLRLSCAASGYTYSSNYMGWFRQAPGKELEWVSGIYSDGRTYYGDSVKGRFTISRDNAKNTVYLQMNSLKPEDTAMYYCAAGSWYNQWGYSMDYWGKGTQVTVSS
# B3: NCI-CoV-2F7 (VHH)
# VHH: QVKLEESGGGSVQSGGSLRLSCTVSRDTNTNINRCMGWFRQAPGKGLETVATINRDGTNTYYTDAVKGRFTISQDNVKNTVYLQMNNLTPEDTGTYICNAMGRGSGSRCDNWDPNYWGQGTQVTVSS
# B4: NCI-CoV-2D4 (VHH)
# VHH: EVQLVESGGGSVQAGGSLRLSCAASAVTSNTNYVGWLRQVPGKEREGVAGIYYDGGVYYDESVKGRFTISRDNAQNTVFLQMNSLKPEDTAMYYCGAGRGYRYQYGSAWYKPGQYHYWGQGTQVTVSS
# B5: NCI-CoV-1B5 (VHH)
# VHH: DVQLVESGGGSVQAGGSLRLSCTGSRYTYSTYCMGWFRQAPGKEEEAVAIINSGGGEPYYGDSVKGRFTISQDRAKNTVYLQMDGLQPDDTAIYYCVAADSHNSRCYLGRSYVNYWGQGTQVTVSS
# B6: NCI-CoV-1A7 (VHH)
# VHH: QVQLVESGGGLVQPGGSLRLSCVASGFTFSSVDMSWVRQDPRKGLEWVSGINSGGGSTSYADSVKGQFTISRDNAKNTLYLEMNNLKPEDTAVYYCATGLAASGVWGQGTQVTVSS
# B7: NCI-CoV-2B3 (VHH)
# VHH: DVQLVESGGSSVQAGGSLRLSCAASGDSYRGNLMGWFRQAPGKAREGVAVIFTPNHNTYAADSVKGRFTISQDKAKNMVYLQMNSLKPEDTAMYYCATGWEGGLILSARAYRYWGQGTQVTVSS
# B8: NCI-CoV-4C6 (VHH)
# VHH: QVQLVESGGGSVQAGESLRLSCAVSGISSSTHYMAWFRQLPGKEREGLANIYTPAKVSLYANDVKGRFTISQDVTKNTVYLQMNSLKPEDTAMYYCAARRNAVCNAGSPLDFEFSYWGQGTQVTVSS
# B9: NCI-CoV-2A10 (VHH)
# VHH: QVQLVESGGGSVQAGGSLRLSCAMSGLRVSNRCMGWFRQAPGKEREGVATICIGDGSTAYADSVKGRFTISQDNAKTTVFLEMNSLKPEDTAMYSCARAVRATAATLDPGNFFYWGQGTQVTVSS
# B10: NCI-CoV-3E5 (VHH)
# VHH: EVQLVESGGGLVQPGGSLRLSCAASGFAFSSTRMHWVRQAPGVGLEWVSFIDRTDGGIISYADSVRGRFTISRDNAKNTVYLQMDRLNAEDTAVYYCLKEGPYLDYWDAWGQGTQVTVSS
# B11: NCI-CoV-1D7 (VHH)
# VHH: QVKLEESGGGLVQPGGSLKLSCTASGFTFSSYNMSWVRQAPGKGLKWVSMIRSDGSNTYYLDSVKGRFTISRDNAKNTVYLQMNSLEPGDTAVYYCVAGRHATYWGQGTQVTVSS
# B12: NCI-CoV-2F5 (VHH)
# VHH: B11 VHH with K3Q, E5V
# B13: NCI-CoV-8A1 (VHH)
# VHH: QVQLVESGGGSVQAGGSLRLSCAASGFTFSSYFMTWVRQAPGKGLEWVSTINSDGSNTYYADSVKGRFTISRDNAKNTLYLQMNSLKPEDTAMYYCNFRRMIGTSNLNYWGQGTQVTVSS
# B14: NCI-CoV-1H8 (VHH)
# VHH: QVQLVESGGGLVQPGGSLRLSCAASGFTFSSYDMTWVRQAPGKGLEWVAAIYTADGSTYLDDSVKGRFTISQDNAKKTLYLQMTSLKVEDTAKYTCATGVGGSFSNWGRGTQVTVSS
# Biological target: T1, SARS-CoV-2 S trimer (SARS-CoV-2, UniProt P0DTC2 16-1213)
# T1 construct: also called SARS-CoV-2 S protein; S homotrimer protein
# Assay: monoclonal phage ELISA, drawn table of OD450 values
row,Binder,OD450
1,B1,0.61
2,B2,0.6
3,B3,0.8
4,B4,0.58
5,B5,0.67
6,B6,0.67

# Biological target: SARS-CoV-2 RBD (SARS-CoV-2, UniProt P0DTC2 319-541)
# Assay: monoclonal VHH phage clone binding screen (FIG. 3A)
row,Binder,binding result
1,B7,binds
2,B8,binds
3,B9,binds
4,B10,binds
5,B11,binds
6,B12,binds
7,B13,binds
8,B14,binds

# Source: patent US20230391852A1 (US Dept. of Health and Human Services, published 2023)
